T1: recombinant human IL-23 (human, UniProt Q9NPF7 20-189; P29460 23-328)
T1 construct: Heterodimer of p19 and p40; also called hIL-23; interleukin-23; not shown: single C-terminal 6xHis tag
T1 sequence 1: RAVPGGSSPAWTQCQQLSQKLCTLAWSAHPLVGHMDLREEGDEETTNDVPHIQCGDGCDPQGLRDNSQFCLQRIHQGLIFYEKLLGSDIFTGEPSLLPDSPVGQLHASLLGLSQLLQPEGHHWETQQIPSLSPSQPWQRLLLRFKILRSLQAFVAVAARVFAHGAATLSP
T1 sequence 2: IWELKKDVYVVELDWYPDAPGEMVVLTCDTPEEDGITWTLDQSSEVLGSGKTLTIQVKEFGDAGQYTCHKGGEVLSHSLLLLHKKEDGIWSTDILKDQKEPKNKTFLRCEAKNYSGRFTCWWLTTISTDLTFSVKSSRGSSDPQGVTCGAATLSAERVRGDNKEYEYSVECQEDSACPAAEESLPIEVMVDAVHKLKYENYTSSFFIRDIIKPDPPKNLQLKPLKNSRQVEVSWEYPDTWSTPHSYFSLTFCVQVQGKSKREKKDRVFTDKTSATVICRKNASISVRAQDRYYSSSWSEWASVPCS

T2: THP-1 derived nhIL-23 (human, UniProt Q9NPF7 20-189; P29460 23-328)
T2 sequence (looked up) 1: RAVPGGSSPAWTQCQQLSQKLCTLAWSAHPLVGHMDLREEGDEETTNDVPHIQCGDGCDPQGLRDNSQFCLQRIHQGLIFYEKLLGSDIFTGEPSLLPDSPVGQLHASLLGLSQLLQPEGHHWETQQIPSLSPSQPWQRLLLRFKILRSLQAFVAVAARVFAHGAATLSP
T2 sequence (looked up) 2: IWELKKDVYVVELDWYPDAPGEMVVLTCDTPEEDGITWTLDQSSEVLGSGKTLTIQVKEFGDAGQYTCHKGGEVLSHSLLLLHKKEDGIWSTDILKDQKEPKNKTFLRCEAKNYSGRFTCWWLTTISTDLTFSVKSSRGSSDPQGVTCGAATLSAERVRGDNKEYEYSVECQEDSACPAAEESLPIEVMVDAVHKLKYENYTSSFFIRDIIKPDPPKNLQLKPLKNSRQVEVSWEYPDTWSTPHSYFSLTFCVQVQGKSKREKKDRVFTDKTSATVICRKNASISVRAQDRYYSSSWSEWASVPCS


Columns and labels:
human TNFα = target: T3, human TNFα (human, UniProt P01375 77-233); assay: competition ELISA on plate-coated human TNFα; competitor 2 nM biotinylated adalimumab, detected with ExtrAvidin-HRP, A450
T3 construct: also called TNF-alpha
T3 sequence (P01375 77-233 limits assumed): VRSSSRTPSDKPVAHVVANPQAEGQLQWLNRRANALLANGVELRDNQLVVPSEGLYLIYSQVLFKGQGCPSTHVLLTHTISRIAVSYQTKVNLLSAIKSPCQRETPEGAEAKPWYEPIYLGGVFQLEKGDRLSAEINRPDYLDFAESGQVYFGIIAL
Method: ELISA plates were coated with 100 ng/mL human TNFα in 250 μg/mL bovine serum albumin (BSA) in phosphate buffered saline (1×PBS) and blocked with 1% BSA in 1× PBS. […] Otherwise 1% BSA was used as an assay diluent.

recombinant human IL-23 [1] = target: T1, recombinant human IL-23; assay: IL-23-IL-23R neutralisation ELISA (Evaluation Method A): ICVD titrated with recombinant human IL-23, binding to coated IL-23R-Fc
Method: (§1) Maxisorp 96-well plates were coated overnight with 50 μl/well 0.3 μg/ml IL-23R-Fc then blocked with 4% milk, 1% BSA.

THP-1 derived nhIL-23 = target: T2, THP-1 derived nhIL-23; assay: cell-based or functional assay
recombinant human IL-23 [2] = target: T1, recombinant human IL-23; assay: IL-23-IL-23R neutralisation ELISA; one experiment, left out of the average by the filing as an outlier
recombinant human IL-23 [3] = target: T1, recombinant human IL-23; assay: IL-23-IL-23R neutralisation ELISA; average of 5 independent experiments
Method: as §1
(§2) The Family L ICVD 12G1 underwent sequence modification to produce multiple variant ICVDs. These variant ICVDs were tested in the potency and protease stability assays detailed above.

recombinant human IL-23 [4] = target: T1, recombinant human IL-23; assay: IL-23-IL-23R neutralisation ELISA
Method: as §1, §2

recombinant human IL-23 [5] = target: T1, recombinant human IL-23; assay: IL-23-IL-23R neutralisation ELISA (sheet title 'IL-23 IL23R ELISA'); construct blocks binding of IL-23 to IL-23R; A450

Row | Binder | Mouse splenocyte (EC50; mIL-17 secretion, Evaluation Method C) (THP-1 derived nhIL-23) | EC50 (recombinant human IL-23 [4]) | other results
1 | ID-38F (VHH, also called anti-TNF-alpha ICVD ID-38F) VHH: DVQLVESGGGLVQPGGSLKLSCAASGFDFSSHWMYWVRQAPGKELEWLSEINTNGLITHYGDSVKGRFTVSRNNAANKMYLELTRLEPEDTALYYCARNQHGLNKGQGTQVTVSS |  |  | binding result (human TNFα): binds
2 | 10G10 (VHH, Purified primary clone made in E. coli; not shown: C-terminal FLAG and 6xHis tags from vector pMEK222) VHH: EVQLVESGGGLVQAGTSLRLSCAASGRTFSNYIMGWFRQAPGKEREFVAIITANGVATDYRDSVKGRFTISRDNARNTGYLEMNSLKPEDTAVYFCALRTRSGSLFDPGTFDYWGQGTQVTVSS |  |  | EC50 (recombinant human IL-23 [1]): 1.47 nM
3 | ID-L210T (VHH, Relative to ID-L253T: D1E, S19R, V92R) VHH: EVQLVESGGGQVQPGGSLRLSCESSVSIWSFKVMGWFRQVPGKQRELVATITTGGSPDYSDSVKGRFTISRDYDKRTLYLQMNSLKPEDTARYYCAGRLWAHITSSGHDVWGQGTQVTVSS | 5.63 nM |  | EC50 (recombinant human IL-23 [2]): 1.1 nM; EC50 (recombinant human IL-23 [3]): 0.32 nM
4 | ID-L252T (VHH, Relative to ID-L253T: D1E, V40A, Q44E, R45L, I69L, L78V) VHH: EVQLVESGGGQVQPGGSLSLSCESSVSIWSFKVMGWFRQAPGKELELVATITTGGSPDYSDSVKGRFTLSRDYDKRTVYLQMNSLKPEDTAVYYCAGRLWAHITSSGHDVWGQGTQVTVSS | 5.2 nM | 0.26 nM | 
5 | ID-L242T (VHH, Relative to ID-L253T: D1E, S19R, S60R, V92R) VHH: EVQLVESGGGQVQPGGSLRLSCESSVSIWSFKVMGWFRQVPGKQRELVATITTGGSPDYRDSVKGRFTISRDYDKRTLYLQMNSLKPEDTARYYCAGRLWAHITSSGHDVWGQGTQVTVSS | 3.01 nM | 0.22 nM | 
6 | ID-L241T (VHH, Relative to ID-L253T: D1E, S19R, D58H, V92R) VHH: EVQLVESGGGQVQPGGSLRLSCESSVSIWSFKVMGWFRQVPGKQRELVATITTGGSPHYSDSVKGRFTISRDYDKRTLYLQMNSLKPEDTARYYCAGRLWAHITSSGHDVWGQGTQVTVSS | 3.51 nM | 0.31 nM | 
7 | ID-L237T (VHH, Relative to ID-L253T: D1E, V92R) VHH: EVQLVESGGGQVQPGGSLSLSCESSVSIWSFKVMGWFRQVPGKQRELVATITTGGSPDYSDSVKGRFTISRDYDKRTLYLQMNSLKPEDTARYYCAGRLWAHITSSGHDVWGQGTQVTVSS | 6.35 nM | 0.24 nM | 
8 | ID-L250T (VHH, Relative to ID-L253T: D1E, V40A, R45L, L47F, D58H) VHH: EVQLVESGGGQVQPGGSLSLSCESSVSIWSFKVMGWFRQAPGKQLEFVATITTGGSPHYSDSVKGRFTISRDYDKRTLYLQMNSLKPEDTAVYYCAGRLWAHITSSGHDVWGQGTQVTVSS |  | 6.95 nM | 
9 | ID-L251T (VHH, Relative to ID-L253T: D1E, S19R, Q44E, L47F, D58H) VHH: EVQLVESGGGQVQPGGSLRLSCESSVSIWSFKVMGWFRQVPGKEREFVATITTGGSPHYSDSVKGRFTISRDYDKRTLYLQMNSLKPEDTAVYYCAGRLWAHITSSGHDVWGQGTQVTVSS | 5.74 nM | 1.99 nM | 
10 | ID-L249T (VHH, Relative to ID-L253T: D1E, V40A, R45L, D58H) VHH: EVQLVESGGGQVQPGGSLSLSCESSVSIWSFKVMGWFRQAPGKQLELVATITTGGSPHYSDSVKGRFTISRDYDKRTLYLQMNSLKPEDTAVYYCAGRLWAHITSSGHDVWGQGTQVTVSS | 4.27 nM | 0.74 nM | 
11 | ID-L246T (VHH, Relative to ID-L253T: D1E, V40A, I69L, L78V) VHH: EVQLVESGGGQVQPGGSLSLSCESSVSIWSFKVMGWFRQAPGKQRELVATITTGGSPDYSDSVKGRFTLSRDYDKRTVYLQMNSLKPEDTAVYYCAGRLWAHITSSGHDVWGQGTQVTVSS |  | 2.15 nM | 
12 | ID-L245T (VHH, Relative to ID-L253T: D1E) VHH: EVQLVESGGGQVQPGGSLSLSCESSVSIWSFKVMGWFRQVPGKQRELVATITTGGSPDYSDSVKGRFTISRDYDKRTLYLQMNSLKPEDTAVYYCAGRLWAHITSSGHDVWGQGTQVTVSS |  | 0.25 nM | 
13 | ID-L239T (VHH, Relative to ID-L253T: D1E, S19R, R45L, V92R) VHH: EVQLVESGGGQVQPGGSLRLSCESSVSIWSFKVMGWFRQVPGKQLELVATITTGGSPDYSDSVKGRFTISRDYDKRTLYLQMNSLKPEDTARYYCAGRLWAHITSSGHDVWGQGTQVTVSS | 3.84 nM | 0.26 nM | 
14 | ID-L244T (VHH, Relative to ID-L253T: D1E, S19R) VHH: EVQLVESGGGQVQPGGSLRLSCESSVSIWSFKVMGWFRQVPGKQRELVATITTGGSPDYSDSVKGRFTISRDYDKRTLYLQMNSLKPEDTAVYYCAGRLWAHITSSGHDVWGQGTQVTVSS | 6.62 nM | 0.24 nM | 
15 | ID-L248T (VHH, Relative to ID-L253T: D1E, K43H, R45L) VHH: EVQLVESGGGQVQPGGSLSLSCESSVSIWSFKVMGWFRQVPGHQLELVATITTGGSPDYSDSVKGRFTISRDYDKRTLYLQMNSLKPEDTAVYYCAGRLWAHITSSGHDVWGQGTQVTVSS | 4.47 nM | 0.17 nM | 
16 | ID-L238T (VHH, Relative to ID-L253T: D1E, S19R, V40A, V92R) VHH: EVQLVESGGGQVQPGGSLRLSCESSVSIWSFKVMGWFRQAPGKQRELVATITTGGSPDYSDSVKGRFTISRDYDKRTLYLQMNSLKPEDTARYYCAGRLWAHITSSGHDVWGQGTQVTVSS | 5.54 nM | 0.2 nM | 
17 | ID-L247T (VHH, Relative to ID-L253T: D1E, V40A, R45L) VHH: EVQLVESGGGQVQPGGSLSLSCESSVSIWSFKVMGWFRQAPGKQLELVATITTGGSPDYSDSVKGRFTISRDYDKRTLYLQMNSLKPEDTAVYYCAGRLWAHITSSGHDVWGQGTQVTVSS | 4.52 nM | 0.31 nM | 
18 | ID-L243T (VHH, Relative to ID-L253T: D1E, S19R, P87S, V92R) VHH: EVQLVESGGGQVQPGGSLRLSCESSVSIWSFKVMGWFRQVPGKQRELVATITTGGSPDYSDSVKGRFTISRDYDKRTLYLQMNSLKSEDTARYYCAGRLWAHITSSGHDVWGQGTQVTVSS | 5 nM | 0.27 nM | 
19 | 12G1 (VHH, Purified primary clone made in E. coli; also called Family L ICVD 12G1; not shown: C-terminal FLAG and 6xHis tags from vector pMEK222) VHH: EVQLVESGGGLVQPGGSLRLSCAASVSIWSFKVMGWYRQVPGKQRELVATITTGGSPDYADSVKGRFTMSRDYDKRTVFLEMDSVKPEDAAVYYCNGRLWAHLTSSGHDVWGQGTRVTVSS |  |  | EC50 (recombinant human IL-23 [1]): 0.387 nM
20 | 1E2 (VHH, Purified primary clone made in E. coli; also called Family L ICVD 1E2; not shown: C-terminal FLAG and 6xHis tags from vector pMEK222) VHH: EVQLVESGGGLVQPGGSLRLSCAASVSIWSFKVMGWYRQVPGKQRELVATITTGGSPDYADSVKGRFTMSRDYDKRTVFLEMDSVKPEDAAVYYCNGRLWAHLTSSGHDVWGQGTQVTVSS |  |  | EC50 (recombinant human IL-23 [1]): 0.546 nM
21 | 10E2 (VHH, Purified primary clone made in E. coli; not shown: C-terminal FLAG and 6xHis tags from vector pMEK222) VHH: EVQLVESGGGLAQAGGSLRLSCAPSGRAFSGSAMGWFRQVPGKEREFVGVIIWTGGYTYYADSVKGRFTISRDSAKNTVYLQMDSLKPEDTAVYYCAARTPNSSWFPTTLYEYDYWGQGTQVTVSS |  |  | EC50 (recombinant human IL-23 [1]): 1.45 nM
22 | FA1K (bispecific antibody, Before trypsin treatment; also called heterobihead anti-IL-23/anti-TNF-alpha construct; ID-38F-(G4S)2-K-(G4S)2-ID-L253T) DVQLVESGGGLVQPGGSLKLSCAASGFDFSSHWMYWVRQAPGKELEWLSEINTNGLITHYGDSVKGRFTVSRNNAANKMYLELTRLEPEDTALYYCARNQHGLNKGQGTQVTVSSGGGGSGGGGSKGGGGSGGGGSEVQLVESGGGQVQPGGSLSLSCESSVSIWSFKVMGWFRQVPGKQRELVATITTGGSPDYSDSVKGRFTISRDYDKRTLYLQMNSLKPEDTAVYYCAGRLWAHITSSGHDVWGQGTQVTVSS |  |  | binding result (recombinant human IL-23 [5]): binds; binding result (human TNFα): binds

Reference: patent publication US20220242945A1 (SORRISO PHARMACEUTICALS, published 2022)
